Experimental data taken from the supplement of paper PMC9170038.

Test system: MS2 coat protein
Assay: apparent KD of MS2 coat protein; designed switch direction (-1 OFF switch, 1 ON switch): -1; higher = weaker reporter binding
Method in brief: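 The buffer was Tris-HCl pH 7.5 with KCl, MgCl2, BSA, DTT, tRNA and Tween-20. In it, SNAP-549-labelled MS2 coat protein was titrated in doubling steps from 0.7 or 1.5 nM to 3 µM over chip-bound RNA switches transcribed by stalled E. coli RNA polymerase on Illumina chips. Apparent KD is the per-design median over clusters of curve fits to normalised fluorescence.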

[1] = Eterna round: R95, input ligand: FMN 200 uM
[2] = Eterna round: R95, input ligand: microRNA oligo, concentration not stated
[3] = Eterna round: R95, input ligand: none
[4] = input ligand: microRNA oligo, concentration not stated

Row | Sequence | apparent KD of MS2 coat protein (input ligand: FMN 200 uM) [µM] | apparent KD of MS2 coat protein (input ligand: none) [µM] | apparent KD of MS2 coat protein [1] [µM] | apparent KD of MS2 coat protein [2] [µM] | apparent KD of MS2 coat protein [3] [µM] | apparent KD of MS2 coat protein [4] [µM]
1 | UUUCCACAUGAGGAUCACCCAUGUCAGGAUAUUAUAGUUGGCCGAAAGGCGUCAGUGGUAAGAAGGGACGUUGA [Eternabot (L2) Solution 46] (Eterna round: R97, puzzle: Exclusion 1) | 0.0161 | 0.0158 | – | – | – | –
2 | AAUAAGUGAGGAUAUACGUCUGGACCCGGGAGGGAAAUAAAACAUGAGGAUCACCCAUGUAGAAGGCACAAUAA [Excls2-III] (puzzle: Exclusion 2) | – | – | 0.0175 | 0.0135 | 0.0169 | –
3 | GCAGCACAUGUAGGAUAUCUGCACGUGUAGUGCAGAGAAGGACAUGAGGAUCACCCAUGUAAUUAAGAUCAAUUAUUAAGCUGC [ENG1/3-C3] (Eterna round: R96, puzzle: Exclusion NG 1) | 0.519 | 0.0491 | – | – | – | 0.0424
4 | UUAAUACAUGUAGGAUAUGCGUGGCGAAGCUAUGCAGAAGGACAUGAGGAUCACCCAUGUUCCAGCGUCCGCGUACGGAUGCAA [JL Eng1 1.21 mod 12] (Eterna round: R96, puzzle: Exclusion NG 1) | 0.0142 | 0.0142 | – | – | – | 0.0124
5 | UCUAGACAUGAGGAUCACCCAUGUGAGGAUAUGAUGCGAUCGUCGAAAGACGAUAGCAUCAGAAGGCACAUAUG [Fiskers Ex 1 - 4] (puzzle: Exclusion 1) | – | – | – | 0.117 | – | –
6 | GGUCGGCGAGGAUAUACAUGAGGAUCACCCAUGUGAUAUAGUGCACGCGUACGUGUACGUAGAAGGCGCUGACG [JL-ex3-3.26 salish99 mod] (puzzle: Exclusion 3) | – | – | 0.0396 | 0.0112 | 0.0151 | –
7 | UCGCUGCGAGGAUAUACAUGAGGAUCACCCAUGUGCGGGUCCGGGUCUUCGUCCAUUGGUAGAAGGCGCAGUGA [JL Laongeedie mod 6] (puzzle: Exclusion 3) | – | – | – | 0.043 | – | –
8 | AAAAAACAAGGAUAUACAAAAAAAAAAUGUGAUAAAAAACCACAUGAGGAUCACCCAUGUAGAAGGUGUAAAAA [JR_Exclusion2_Sub003] (puzzle: Exclusion 2) | – | – | 0.0556 | 0.0628 | 0.065 | –
9 | GUUGUUUAUGUAGGAUAUGCAAGGCGAGCCUAAGCAGAAGGACAUGAGGAUCACCCAUGUAUUGCGGUCUGCGUUCAGAUCGCU [salish99_ExNG1_r4_015] (Eterna round: R96, puzzle: Exclusion NG 1) | 0.164 | 0.0259 | – | – | – | 0.0173
10 | AGUACUAACACGAAAGUGUUAGUACAAUAAGCUUGUGUUACAUGAGGAUCACCCAUGUCCUCAUAAGCUCGUCUUAG [Mat - Sensor v3 - Turn-off var 2 - D50] (puzzle: Sensor v3, turn-off variant 2) | – | – | 0.0459 | 0.351 | 0.0454 | –
11 | UACAUGAGGAUCACCCAUGUUUUGUCGUGUAUGGUAUUUAUCUAGGAUAUCAUUUUAUUUAUUUAUGAGAAGGAGAAUAUUAAU [JMF's solution 6] (Eterna round: R96, puzzle: Exclusion NG 3) | 0.0494 | 0.0372 | – | – | – | 0.027
12 | GACCUGUGAGGAUAUUAUUAAAGGCCAAGUUAGGCCUUAAUUGAGAAGGCACAUGAGGAUCACCCAUGUUUGAC [Eternabot (L2) Solution 55] (Eterna round: R97, puzzle: Exclusion 4) | 0.0903 | 0.0223 | – | – | – | –
13 | GGCUAGUCAGGAUAUACGAACAUGUCAAAAGACGUGAAGGGACAUGAGGAUCACCCAUGUAGAAGGGACUAGCA [salish99_ex2_r3_001] (puzzle: Exclusion 2) | – | – | – | 0.0235 | – | –
14 | GUGGUACAUGAGGAUCACCCAUGUAAGGAUAUAGUCGUCUGGUGGUCGCGGGUGGUGGCUAGAAGGUGCGUGCG [-19.6, -16.8 kcal, A 19%] (Eterna round: R97, puzzle: Exclusion 1) | 0.0939 | 0.125 | – | – | – | –
15 | UUUUCACAUGAGGAUCACCCAUGUGAGGAUAUGGAUUCGCUGGCCGUAGCCAGUGGAUCCAGAAGGCGCAUGAU [JL-ex1-4.06] (Eterna round: R97, puzzle: Exclusion 1) | 0.036 | 0.0328 | – | – | – | –
16 | GGUACUCAAAGAGUACCAAUACGAACAUGAGGAUCACCCAUGUAGGAUAUGCUACUCAAAGAGUAGCAGAAGGAUAUGAUGGAU [Far Half Aptamer v15] (Eterna round: R96, puzzle: Exclusion NG 3) | 0.0602 | 0.0342 | – | – | – | 0.0192
17 | UUAAUUACGGUGCUUUAACCUCACAUGAGGAUCACCCAUGUGCAGGAUAUCAGCUCGUGUAGAGCUGAGAAGGGCACUGCACCG [ExNG3/11-A3] (Eterna round: R96, puzzle: Exclusion NG 3) | 0.014 | 0.0121 | – | – | – | 0.00805

Row | Sequence | apparent KD of MS2 coat protein (input ligand: FMN 200 uM) [µM] | apparent KD of MS2 coat protein (input ligand: none) [µM] | apparent KD of MS2 coat protein [1] [µM] | apparent KD of MS2 coat protein [2] [µM] | apparent KD of MS2 coat protein [3] [µM] | apparent KD of MS2 coat protein [4] [µM]
18 | UAAGUGUGAGGAUAUGGUAAAGAUAAGAUGAUGAAAGAACUCCAGAAGGCACAUGAGGAUCACCCAUGUAGAUG [JL-ex4-2.11 Jieux mod] (puzzle: Exclusion 4) | – | – | – | 0.0353 | – | –
19 | AUAUACGGAGGAUAUACUUGAGGAUCACCCAAGUGGAAUCCCGUUUGGGCGGUAAAUAGUAGAAGGCCGACCCA [jl-ex3-4.42 ViennaUCT mod] (Eterna round: R97, puzzle: Exclusion 3) | 0.0177 | 0.0163 | – | – | – | –
20 | UGAUGACAUGAGGAUCACCCAUGUCAGGAUAUUGAUCGUGAUCGGAAAUGAUCGUGAUCGAGAAGGGACUGUCG [-24.4, -21.4 kcal, A 28%, 2] (Eterna round: R97, puzzle: Exclusion 1) | 0.0318 | 0.0276 | – | – | – | –
21 | GGCCUUCCGCGAGCUUUUUACAUGAGGAUCACCCAUGUGGUUUUUAGUCUUAUCCGGCCGGCCGUGUGGCCGGCCGG [-32.9, -53.8, A 12%] (Eterna round: R97, puzzle: Sensor, turn-off variant 1) | 0.0261 | 0.0304 | – | – | – | –
22 | CAGAGCAGACGGAGAUCCAACAUGAGGAUCACCCAUGUCUCAAAAGCUUUUUGCUCGUCUUAUCCUCCUCUGUUCAC [Esquitian 3] (Eterna round: R97, puzzle: Sensor, turn-off variant 1) | 0.026 | 0.0304 | – | – | – | –
23 | AGUUGGCGAGGAUAUACAUGAGGAUCACCCAUGUGAGAGAUACGAGUGAGGUCGAUUAGUAGAAGGCGCUGACA [Mat X3R4 m14] (Eterna round: R97, puzzle: Exclusion 3) | 0.984 | 0.161 | – | – | – | –
24 | CUGUUCCGUGUAGGAUAUGCAUAUUCUCAUUAUGCAGAAGGACAUGAGGAUCACCCAUGUAUGUUAUUAUCAUAUGUUACAUGU [Design 5] (Eterna round: R96, puzzle: Exclusion NG 1) | – | – | – | – | – | 0.0297
25 | AUUGAUGUUGAGGAUAUGCAUAUAUUUAUAAAAGCAGAAGGCGAUACAUGAGGAUCACCCAUGUUCAUGGAAGU [JR_E6_Sub094] (puzzle: Exclusion 6) | – | – | 0.0467 | 0.035 | 0.0513 | –
26 | UAAGAGUGAGGAUAUACGUCGCUGGUCUGGAUGGACGCAUGACAUGAGGAUCACCCAUGUAGAAGGCACAAAAC [Enxela Mod 11 - Jieux - Exclusion 2] (Eterna round: R97, puzzle: Exclusion 2) | 0.153 | 0.035 | – | – | – | –
27 | AUCAAGGGAGGAUAUACAGUGAACAGUACUAGUCAGGCGGCACAUGAGGAUCACCCAUGUAGAAGGCCCAUGAU [Eternabot (L1) Solution 70] (Eterna round: R97, puzzle: Exclusion 2) | 0.08 | 0.0248 | – | – | – | –
28 | UGCGGGCUUUUGAGACCUCACAUGAGGAUCACCCAUGUGCUUGUCUUGUGGGUCGGUCGGUCGUUGGCUGGCUGACG [Sensor-V1 #96] (Eterna round: R97, puzzle: Sensor, turn-off variant 1) | 0.0192 | 0.0193 | – | – | – | –
29 | UCCGAAGCAGGAUAUACAUGAGGAUCACCCAUGUGCUUGCAUGGCGUGGGAAGUCAUAGUAGAAGGGCUACGCC [jl-ex3-4.71 ViennaUCT mod] (Eterna round: R97, puzzle: Exclusion 3) | 0.0531 | 0.0337 | – | – | – | –
30 | GAGUGACAUGAGGAUCACCCAUGUAAGGAUAUACGGUUGGUAGAGAGAGGGCGAAAGGGUAGAAGGUACGAAGG [JR_Exclu1_Sub054] (puzzle: Exclusion 1) | – | – | 0.0646 | 0.076 | 0.0952 | –
31 | UAGUUAUUCACAGGAUAUCGCCUCUUAUUACAUGAGGAUCACCCAUGUUUAUUUUGUUACAUGUUCGAGAAGGGUGUAGCCGUU [JR_ExcNG2_Sub045] (Eterna round: R96, puzzle: Exclusion NG 2) | – | – | – | – | – | 0.258
32 | GUAGAGUGAGGAUAUACAAGAUCGAUAGAUCGGCGAUCCAUACAUGAGGAUCACCCAUGUAGAAGGCACUCUAC [Mat - Exclusion 2 - Eli Mod - D7] (Eterna round: R97, puzzle: Exclusion 2) | 0.218 | 0.0835 | – | – | – | –
33 | AGAAAGCAAGGAUAUACGAGGAGAAGGUGGAGAGUUAAAGGACAUGAGGAUCACCCAUGUAGAAGGUGCGAGAA [JR_Exclu2_Sub044] (puzzle: Exclusion 2) | – | – | 0.122 | 0.0671 | 0.072 | –
34 | UUGCUUUCUUAGUACUCUAUAAGUUUUUUGUUCGUUUUAACAUGAGGAUCACCCAUGUCUAGUGGAUCUGAUCGGGU [JL ViennaUCT Isreen mod 7] (puzzle: Sensor v3, turn-off variant 2) | – | – | 0.15 | 0.303 | 0.163 | –
